In the Human Domainome abundance scans (Beltran et al. 2025):

B1: Membrane-associated guanylate kinase, WW and PDZ domain-containing protein 1, residues 352 to 401; numbered along this chain, Q96QZ7 (parent)
chain: TEELDSELELPAGWEKIEDPVYGIYYVDHINRKTQYENPVLEAKRKKQLE

Variants of: B1
Test: abundance fitness (aPCA) (normalised: wild type 0, dead -1); higher = more abundant; growth selection in yeast, the domain comes from the species named
Conditions: Homo sapiens

Abundance fitness of substitutions, site by site:
Y26: R -0.549 | L -0.741 | I -0.982 | S -0.337 | W -0.257 | P -0.404 | G -0.395 | M -0.552 | F -0.137 | K -0.563 | A -0.321 | E -0.213 | T -0.457 | V -0.668 | N -0.54 | Q -0.385
G23: K -0.762 | D -0.884 | F -0.826 | S -0.79 | C -1.08 | P -0.958 | Q -1.34 | L -1.13 | W -0.8 | E -0.801 | V -1.2 | N -0.822 | A -1.1 | R -0.56 | H -0.822 | M -0.9
I24: P -0.057 | T 0.039 | V -0.066 | F 0.015 | G -0.208 | K -0.238 | C -0.22 | Y -0.569 | R -0.203 | A -0.323 | E 0.067 | L -0.223 | W -0.344 | Q -0.225 | S -0.144 | D -0.387 | H -0.64
D28: F -1.12 | Q -0.934 | H -0.634 | K -0.764 | P -0.855 | M -1.14 | N -0.303 | A -1.16 | Y -0.861 | V -1.24 | E -0.696 | R -1.09 | G -1.07 | C -1
H29: A -0.229 | C -0.502 | D -0.535 | E -0.354 | F -0.682 | G -0.317 | K -0.157
Y22: M -0.378 | D -0.078 | K 0.082 | P -0.24 | V -0.051 | N -0.199 | H 0.1 | S -0.035 | Q -0.156 | I -0.162 | G -0.027 | W -0.186 | A -0.041 | R 0.056 | T -0.159 | F -0.122 | C -0.061 | E -0.004
V21: N -0.056 | E 0.063 | G -0.307 | Y -0.162 | R -0.012 | I -0.034 | M -0.517 | W -0.241 | H -0.232 | L 0.026 | F 0.041 | T 0.081 | A 0.097 | K 0.012 | P -0.322 | S -0.165 | C -0.038 | Q -0.008
Y25: C -0.251 | V -0.079 | H -0.192 | M -0.033 | P -0.367 | Q -0.14 | A -0.278 | W -0.361 | T -0.266 | K 0.007 | E -0.26 | N -0.447 | S -0.119 | G -0.299 | D -0.333 | F -0.148 | L -0.593 | I -0.053
P20: W -0.339 | M -0.314 | E -0.426
E18: S -0.33 | W -0.745 | T 0.001 | Q -0.794 | R -0.461 | Y -0.39 | N -0.03 | P -0.549 | M -0.231 | V -0.1
D19: Q -0.66 | C -0.015 | L -0.985 | G -0.596 | R -0.855 | H -0.114 | K -0.579 | S -0.163 | A -0.551 | I -0.633 | M -0.845 | W -1.03 | N -0.611 | Y -0.861
V27: A -0.096 | I -0.178 | H -0.307 | C -0.055 | D 0.071 | G -0.378 | P -0.394 | T -0.26 | W -0.242 | N -0.34 | M 0.038 | R -0.069 | K 0.044 | E -0.229 | Q -0.227 | L -0.073
